± gives the uncertainty stated by the source.
Assay: self-splicing fitness, log relative to wild type (ln ratio); higher = more splicing; Tetrahymena group I intron in knt gene, E. coli kanamycin selection, DiMSum; sequences stand for … in CUCUCU…GGAGGGAAAAGUUAUCAGGCAUGCACCUGGUAGCUAGUCUUUAAACCAAUAGAUUGCAUCGGUUUAAAAGGCAAGACCGUCAAAUUGCGGGAAAGGGGUCAACAGCCGUUCAGUACCAAGUCUCAGGGGAAACUUUGAGAUGGCCUUGCAAAGGGUAUGGUAAUAAGCUGACGGACAUGGUCCUAACCACGCAGCCAAGUCCUAAGUCAACAGAUCUUCUGUUGAUAUGGAUGCAGUUCACAGACUAAAUGUCGGUCGGGGAAGAUGUAUUCUUCUCAUAAGAUAUAGUCGGACCUCUCCUUAAUGGGAGCUAGCGGAUGAAGUGAUGCAACACUGGAGCCGCUGGGAACUAAUUUGUAUGCGAAAGUAUAUUGAUUAGUUUUGGAGUACUCGUGGUCG
Method in brief: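 Fitness was computed with DiMSum as the error-weighted combination of replicate fold changes, kanamycin versus none, each normalised to wild type. The library randomised all eight intron nucleotides of the P1ex region, with the intron placed in the knt kanamycin-resistance gene on pET-22b(+) in E. coli BL21(DE3). Six replicate transformations were grown overnight at 37°C or 30°C on LB agar with or without 25 μg/mL kanamycin, plus 100 μg/mL carbenicillin, 50 μM IPTG and 0.2% rhamnose. Pooled colonies were amplicon-sequenced on an Illumina HiSeq 2500.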

Sequence	self-splicing fitness (ln) (30 °C)	self-splicing fitness (ln) (37 °C)
AUGAAGCAAUAUUACGCUGG	-1.42 ± 0.1	-0.718 ± 0.12
AUGAAGCAAUAUUACGCUUC	-1.79 ± 0.15	-2.99 ± 0.41
AUGAAGCAAUAUUACGGCAU	-0.0745 ± 0.047	0.444 ± 0.063
AUGAAGCAAUAUUACGGGAG	-1.71 ± 0.098	-1.16 ± 0.11
AUGAAGCAAUAUUACGGGAU	-0.638 ± 0.056	-0.499 ± 0.093
AUGAAGCAAUAUUACGGUCG	0.0254 ± 0.086	0.299 ± 0.1
AUGAAGCAAUAUUACGGUUA	-0.509 ± 0.058	0.318 ± 0.077
AUGAAGCAAUAUUACGGUUU	-1.99 ± 0.088	-0.875 ± 0.091
AUGAAGCAAUAUUACGUACA	-0.369 ± 0.083	-0.631 ± 0.089
AUGAAGCAAUAUUACGUAGU	-1.91 ± 0.062	-0.665 ± 0.092
AUGAAGCAAUAUUACGUAUG	-1.78 ± 0.082	-1.26 ± 0.098
AUGAAGCAAUAUUACGUCCU	-0.113 ± 0.093	0.0551 ± 0.11
AUGAAGCAAUAUUACGUCGU	-0.896 ± 0.07	-0.0581 ± 0.089
AUGAAGCAAUAUUACGUGAU	-1.24 ± 0.073	-0.839 ± 0.085
AUGAAGCAAUAUUACGUGCG	-0.65 ± 0.08	0.532 ± 0.11
AUGAAGCAAUAUUACGUGGA	-2.73 ± 0.096	-1.45 ± 0.11
AUGCAGCAAUAUUACGAAUU	-1.9 ± 0.1	-0.246 ± 0.12
AUGCAGCAAUAUUACGACGC	-1.48 ± 0.11	-1.32 ± 0.12
AUGCAGCAAUAUUACGAGAC	-3.17 ± 0.29	-2.59 ± 0.33
AUGCAGCAAUAUUACGAGCC	-2.69 ± 0.2	-0.935 ± 0.18
AUGCAGCAAUAUUACGAGCU	-0.624 ± 0.073	-0.565 ± 0.088
AUGCAGCAAUAUUACGAGGU	-3.04 ± 0.16	-2.27 ± 0.13
AUGCAGCAAUAUUACGAUAA	-1.55 ± 0.1	0.424 ± 0.092
AUGCAGCAAUAUUACGCACA	-0.62 ± 0.11	0.467 ± 0.13

Sequence	self-splicing fitness (ln) (30 °C)	self-splicing fitness (ln) (37 °C)
AUGCAGCAAUAUUACGCUGG	-2.5 ± 0.17	-2.68 ± 0.25
AUGCAGCAAUAUUACGGAGC	-2.6 ± 0.15	-2.99 ± 0.18
AUGCAGCAAUAUUACGGAGG	-3.79 ± 0.2	-2.07 ± 0.15
AUGCAGCAAUAUUACGGCCA	-0.753 ± 0.14	0.267 ± 0.14
AUGCAGCAAUAUUACGGGCC	-1.43 ± 0.1	-1.02 ± 0.11
AUGCAGCAAUAUUACGGGGC	-4.09 ± 0.23	-2.54 ± 0.21
AUGCAGCAAUAUUACGGGUC	-3.56 ± 0.31	-1.61 ± 0.13
AUGCAGCAAUAUUACGGGUU	-1.98 ± 0.075	-1.29 ± 0.096
AUGCAGCAAUAUUACGGUCU	-0.211 ± 0.078	0.0315 ± 0.091
AUGCAGCAAUAUUACGUAGC	-3.81 ± 0.37	-2.34 ± 0.24
AUGCAGCAAUAUUACGUAUU	-4.03 ± 0.26	-1.69 ± 0.14
AUGCAGCAAUAUUACGUGGC	-4.09 ± 0.28	-2.53 ± 0.19
AUGCAGCAAUAUUACGUGUG	-2.45 ± 0.071	-1.44 ± 0.085
AUGCAGCAAUAUUACGUUCG	-0.728 ± 0.059	-0.798 ± 0.089
AUGCAGCAAUAUUACGUUUC	-3.96 ± 0.18	-3.31 ± 0.32
AUGGAGCAAUAUUACGAAUA	-2.15 ± 0.34	-1.08 ± 0.36
AUGGAGCAAUAUUACGACCG	-3.83 ± 0.37	-1.19 ± 0.26
AUGGAGCAAUAUUACGAUGU	-1.25 ± 0.14	-0.184 ± 0.2
AUGGAGCAAUAUUACGCACC	-2.45 ± 0.4	-1.26 ± 0.22
AUGGAGCAAUAUUACGCCAC	-2.95 ± 0.41	
AUGGAGCAAUAUUACGCCCU	-2.84 ± 0.3	-2.13 ± 0.37
AUGGAGCAAUAUUACGCGGG	-2.84 ± 0.45	
AUGGAGCAAUAUUACGCUGU	-2.13 ± 0.21	-1.37 ± 0.44
AUGGAGCAAUAUUACGGACA	-3.23 ± 0.43	-1.91 ± 0.2

Sequence	self-splicing fitness (ln) (30 °C)	self-splicing fitness (ln) (37 °C)
AUGGAGCAAUAUUACGGAGG	-2.11 ± 0.17	-2.54 ± 0.3
AUGGAGCAAUAUUACGGGGU		-2.27 ± 0.37
AUGGAGCAAUAUUACGGGUA	-3.28 ± 0.27	-3.06 ± 0.35
AUGGAGCAAUAUUACGGUCC	-3 ± 0.32	-0.466 ± 0.31
AUGGAGCAAUAUUACGGUGG	-4.09 ± 0.3	-2.17 ± 0.27
AUGGAGCAAUAUUACGUACU	-0.848 ± 0.16	-0.491 ± 0.18
AUGGAGCAAUAUUACGUCAU		-1.33 ± 0.27
AUGGAGCAAUAUUACGUGAG	-2.31 ± 0.14	-2.09 ± 0.15
AUGGAGCAAUAUUACGUGGA	-4.25 ± 0.4	-1.78 ± 0.29
AUGGAGCAAUAUUACGUGGC	-2.39 ± 0.29	-2.39 ± 0.38
AUGGAGCAAUAUUACGUGGU	-3.08 ± 0.17	-1.35 ± 0.23
AUGGAGCAAUAUUACGUGUG		-2.69 ± 0.24
AUGGAGCAAUAUUACGUUAA	-2.58 ± 0.22	-1.59 ± 0.23
AUGUAGCAAUAUUACGAAAG	-2.59 ± 0.23	-2.2 ± 0.26
AUGUAGCAAUAUUACGACCG	-0.834 ± 0.12	-0.5 ± 0.17
AUGUAGCAAUAUUACGACUA	-0.419 ± 0.27	-0.536 ± 0.31
AUGUAGCAAUAUUACGAGAU	-2.04 ± 0.14	-0.409 ± 0.13
AUGUAGCAAUAUUACGAGGA	-3 ± 0.41	-2.11 ± 0.43
AUGUAGCAAUAUUACGAUAG	-2.48 ± 0.19	-2.67 ± 0.27
AUGUAGCAAUAUUACGAUGU	-0.753 ± 0.064	-0.0629 ± 0.087
AUGUAGCAAUAUUACGAUUG	-1.21 ± 0.15	-3.05 ± 0.38
AUGUAGCAAUAUUACGCAGG	-2.06 ± 0.22	-1.7 ± 0.19
AUGUAGCAAUAUUACGCCGG	-2.45 ± 0.17	-0.942 ± 0.33
AUGUAGCAAUAUUACGCCUG	-1.33 ± 0.23	-0.722 ± 0.21

Sequence	self-splicing fitness (ln) (30 °C)	self-splicing fitness (ln) (37 °C)
AUGUAGCAAUAUUACGCGCA	-0.46 ± 0.16	-0.226 ± 0.15
AUGUAGCAAUAUUACGCGGU	-2.3 ± 0.15	-1.58 ± 0.2
AUGUAGCAAUAUUACGCUAA	-1.75 ± 0.12	-0.814 ± 0.13
AUGUAGCAAUAUUACGGAGG	-3.57 ± 0.23	-2.57 ± 0.23
AUGUAGCAAUAUUACGGCGA	-0.117 ± 0.088	-0.00452 ± 0.11
AUGUAGCAAUAUUACGGCUA	-2.45 ± 0.22	-2.14 ± 0.25
AUGUAGCAAUAUUACGUAAA	-2.25 ± 0.25	-1.9 ± 0.26
AUGUAGCAAUAUUACGUAGC	-2.56 ± 0.18	-2.43 ± 0.29
AUGUAGCAAUAUUACGUGUA	-2.47 ± 0.11	-1.74 ± 0.089
AUGUAGCAAUAUUACGUUAU	-2.41 ± 0.22	-2.12 ± 0.22
AUUAAGCAAUAUUACGAAAA	-1.27 ± 0.16	-1.5 ± 0.18
AUUAAGCAAUAUUACGAAAC	-3.37 ± 0.16	-1.6 ± 0.15
AUUAAGCAAUAUUACGAAAG	-1.89 ± 0.15	-1.23 ± 0.16
AUUAAGCAAUAUUACGAACC	-1.35 ± 0.29	-0.847 ± 0.29
AUUAAGCAAUAUUACGACAC	-0.804 ± 0.13	-0.46 ± 0.14
AUUAAGCAAUAUUACGAGAC	-3.39 ± 0.48	-1.46 ± 0.27
AUUAAGCAAUAUUACGAGUA	-2.07 ± 0.16	-1.49 ± 0.13
AUUAAGCAAUAUUACGCAGG	-2.22 ± 0.19	-0.608 ± 0.2
AUUAAGCAAUAUUACGCGCA	-0.661 ± 0.13	0.376 ± 0.16
AUUAAGCAAUAUUACGCGGA	-2.44 ± 0.2	-0.491 ± 0.15
AUUAAGCAAUAUUACGCGUG	-0.804 ± 0.067	-0.697 ± 0.081
AUUAAGCAAUAUUACGCUCG	-0.344 ± 0.11	0.171 ± 0.15
AUUAAGCAAUAUUACGCUCU	-0.588 ± 0.18	0.11 ± 0.16
AUUAAGCAAUAUUACGCUUA	-2.18 ± 0.26	-1.82 ± 0.25
